Measured values from US12329823B2 (The Scripps Research Institute, priority 2021, dated 2025).
“And” between values parts separate entries of the source, which are not always exact repeats. Identical values can stand only once. Like-named read-outs stand apart in the source and are kept apart here.

Key:
[1] = Pharmacokinetics in CD-1 mouse, I.V. or S.C. 1 mg/kg, plasma concentration by LC-MS; details: individual animals; for AUC(0-inf): AUCINF_pred; for MRT inf / MRT last: mouse, in vivo; for MRT inf: MRTINF_pred; for MRT last: MRTlast;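 for all read-outs here: peptide levels in plasma quantified by LC-MS across multiple sampling times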
Procedure: The peptide plasma concentration at various time points was determined using LC-MS.

[2] = target: cynomolgous monkey GLP1R (Macaca fascicularis, UniProt F8V479); test: In vitro potency, cynomolgous monkey GLP1R activation (receptor-mediated cAMP synthesis); type: cell-based; details: Table 12; read-out: In Vitro Potency GLP1R EC50, Cyno
Chain of cynomolgous monkey GLP1R (F8V479 24-463): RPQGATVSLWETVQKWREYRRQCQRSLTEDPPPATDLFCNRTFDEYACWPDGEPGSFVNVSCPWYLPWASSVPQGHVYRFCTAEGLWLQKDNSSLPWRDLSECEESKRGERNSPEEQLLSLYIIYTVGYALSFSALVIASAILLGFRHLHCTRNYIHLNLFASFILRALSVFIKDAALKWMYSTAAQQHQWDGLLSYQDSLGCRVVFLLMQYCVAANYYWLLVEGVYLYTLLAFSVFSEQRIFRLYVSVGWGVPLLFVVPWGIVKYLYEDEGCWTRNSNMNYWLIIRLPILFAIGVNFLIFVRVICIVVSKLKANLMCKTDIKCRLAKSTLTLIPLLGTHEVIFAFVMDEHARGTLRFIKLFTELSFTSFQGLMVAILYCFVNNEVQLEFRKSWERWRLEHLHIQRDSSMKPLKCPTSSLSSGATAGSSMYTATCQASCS
Procedure: (§1) GLP-1R-CRE or HEK293-GIPR-CRE cells were seeded in 384-well plates at a density of 5000 cells per well and cultured for 18 h in DMEM with 10% FBS at 37° C. and 5% CO2. Cells were treated with peptides in a dose dependent manner for 24 h, and receptor activation was reported by luminescence intensities, using One-Glo (Promega, WI) luciferase reagent following manufacturer's instruction. The EC50 of each peptide was determined using GraphPad Prism 6 software (GraphPad, San Diego, CA). Results are depicted in FIGS. 6A-6B, FIGS. 7A-7B, FIGS. 8A-8B, FIGS. 9A-9B, and Tables 7-12. Measurements of peptide conjugate potency were expressed as half maximal effective concentration (EC50) values.

[3] = target: human GLP-1R (Homo sapiens, UniProt P43220); test: In vitro receptor activation reporter assay (CRE-Luc, HEK293-GLP-1R-CRE cells; receptor-mediated cAMP synthesis); type: cell-based; parameters: expressed in transfected cells; host or cells: HEK293 (CRE-HEK293, HEK293-GLP-1R-CRE); details: Table 11, human
Chain of human GLP-1R (P43220 24-463): as the sequence (F8V479 24-463) above, with N112S, S120F, G202S, V205L, F237L, R241W, V249I counted along it

[4] = in vivo; details: dog
[5] = target: T1, dog GLP1R (Canis lupus familiaris, UniProt A0A8I3NUR9); test: In vitro potency, dog GLP1R activation (receptor-mediated cAMP synthesis); type: cell-based; details: Table 12
T1 sequence (A0A8I3NUR9 1-464): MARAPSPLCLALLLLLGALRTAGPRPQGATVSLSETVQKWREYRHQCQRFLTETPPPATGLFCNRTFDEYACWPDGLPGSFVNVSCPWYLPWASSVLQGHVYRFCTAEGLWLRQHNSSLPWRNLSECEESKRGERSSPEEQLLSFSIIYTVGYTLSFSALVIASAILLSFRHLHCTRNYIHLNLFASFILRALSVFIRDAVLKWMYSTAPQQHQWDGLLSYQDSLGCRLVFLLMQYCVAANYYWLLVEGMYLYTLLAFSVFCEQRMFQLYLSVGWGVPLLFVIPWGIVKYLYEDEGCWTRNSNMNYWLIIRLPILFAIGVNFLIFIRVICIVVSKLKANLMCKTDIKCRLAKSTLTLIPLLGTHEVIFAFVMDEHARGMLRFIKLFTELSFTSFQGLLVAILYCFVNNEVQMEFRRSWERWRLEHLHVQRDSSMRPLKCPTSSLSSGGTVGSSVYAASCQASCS
Procedure: as §1

[6] = CD-1, mouse, plasma, iv, 1 mg/kg, Table 15, I.V. 1 mg/kg
[7] = CD-1, mouse, plasma, sc, 1 mg/kg, S.C.
[8] = Table 15, I.V. 1 mg/kg, 1 mg/kg
[9] = iv, 1 mg/kg, Table 15, I.V. 1 mg/kg

SMILES: CC[C@H](C)[C@H](NC(=O)[C@H](CC(C)C)NC(=O)[C@H](Cc1c[nH]c2ccccc12)NC(=O)[C@@H]1CSCC(=O)NCCN(C(=O)CCC(=O)NCCOCCOCCC(=O)NCCOCCOCCC(=O)NCCCC[C@H](NC(=O)CCCCCCCCCCCCCCCCC(=O)O)C(=O)O)CCNC(=O)CSC[C@H](NC(=O)[C@H](CCCCN)NC(=O)[C@H](CC(=O)O)NC(=O)[C@H](CC(C)C)NC(=O)[C@H](Cc2ccc(O)cc2)NC(=O)[C@@H](NC(=O)[C@H](CO)NC(=O)[C@H](Cc2ccc(O)cc2)NC(=O)[C@H](CC(=O)O)NC(=O)[C@H](CO)NC(=O)[C@@H](NC(=O)[C@H](Cc2ccccc2)NC(=O)[C@@H](NC(=O)CNC(=O)[C@H](CCC(=O)O)NC(=O)C(C)(C)NC(=O)[C@@H](N)Cc2ccc(O)cc2)[C@@H](C)O)[C@@H](C)O)[C@@H](C)CC)C(=O)N[C@@H](C)C(=O)N[C@@H](C)C(=O)NC(C)(C)C(=O)N[C@@H](CCC(=O)O)C(=O)N[C@@H](Cc2ccccc2)C(=O)N[C@@H](C(C)C)C(=O)N1)C(=O)N[C@@H](C)C(=O)NCC(=O)NCC(=O)N1CCC[C@H]1C(=O)N[C@@H](CO)C(=O)N[C@@H](CO)C(=O)NCC(=O)N[C@@H](C)C(=O)N1CCC[C@H]1C(=O)N1CCC[C@H]1C(=O)N1CCC[C@H]1C(=O)N[C@@H](CO)C(N)=O [mCMZ371, YAibEGT-FTSDY-SIYLD-KXAAAib-EFVXW-LIAGG-PSSGA-PPPS-NH2 (where each X is C) (SEQ ID NO: 61)]
- AUC ([1]; CD-1, mouse, plasma, iv, 1 mg/kg, AUC0_24, Table 15, I.V. 1 mg/kg): 242 µg·h/mL
- AUC(0-t) ([1]; CD-1, mouse, plasma, iv, 1 mg/kg, AUC last, Table 15, I.V. 1 mg/kg): 341 µg·h/mL
- AUC(0-inf) [1, 6]: 344 µg·h/mL
- C0 ([1]; CD-1, mouse, plasma, iv, 1 mg/kg, C0, Table 15, I.V. 1 mg/kg): 15500 ng/mL
- Cmax ([1]; CD-1, mouse, plasma, iv, 1 mg/kg, Cmax, Table 15, I.V. 1 mg/kg): 15100 ng/mL
- Tmax [1, 6]: 0.08 h
- Vd ([1]; CD-1, mouse, plasma, iv, 1 mg/kg, Vss_pred, Table 15, I.V. 1 mg/kg): 0.051 L/kg
- Vd ([1]; CD-1, mouse, plasma, iv, 1 mg/kg, Vz_pred, Table 15, I.V. 1 mg/kg): 0.038 L/kg
- half-life ([1]; CD-1, mouse, plasma, iv, 1 mg/kg, t1/2, Table 15, I.V. 1 mg/kg): 548 min
- AUC ([1]; CD-1, mouse, plasma, sc, 1 mg/kg, AUC0_24, CD-1 mouse, S.C.): 127 µg·h/mL
- AUC(0-inf) [1, 7]: 274 µg·h/mL
- AUC ([1]; CD-1, mouse, plasma, sc, 1 mg/kg, AUCall, S.C.): 267 µg·h/mL
- CL/F ([1]; CD-1, mouse, plasma, sc, 1 mg/kg, Cl_Fpred, S.C.): 0.12 mL/min/kg
- Tmax [1, 7]: 24 h
- half-life ([1]; CD-1, mouse, plasma, sc, 1 mg/kg, t1/2, CD-1 mouse, S.C.): 640 min
- AUC0_24 ([1]; CD-1 mouse, S.C., 1 mg/kg): 67.917 µg·h/mL and 95.28 µg·h/mL
- AUCINF_pred ([1]; CD-1 mouse, S.C., 1 mg/kg): 143.707 µg·h/mL and 202.468 µg·h/mL
- AUC_% Extrap_pred ([1]; CD-1 mouse, S.C., 1 mg/kg): 2.34% and 3.37% and 2.55%
- AUCall ([1]; CD-1 mouse, S.C., 1 mg/kg): 138.868 µg·h/mL and 197.314 µg·h/mL
- AUMC_% Extrap_pred ([1]; CD-1 mouse, S.C., 1 mg/kg): 7.05% and 10.52% and 7.78%
- Cl_Fpred ([1]; CD-1 mouse, S.C., 1 mg/kg): 0.24 mL/min/kg
- Cmax ([1]; CD-1 mouse, S.C., 1 mg/kg): 9259 ng/mL and 3389 ng/mL and 6337 ng/mL
- MRTINF_pred ([1]; CD-1 mouse, S.C., 1 mg/kg): 28.76 h and 28.77 h
- MRTlast ([1]; CD-1 mouse, S.C., 1 mg/kg): 26.63 h and 27.22 h
- Tlast ([1]; CD-1 mouse, S.C., 1 mg/kg): 72 h
- V_F_pred ([1]; CD-1 mouse, S.C., 1 mg/kg): 0.06 L/kg and 0.12 L/kg and 0.08 L/kg
- t1/2 ([1]; CD-1 mouse, S.C., 1 mg/kg): 12.36 h and 11.01 h
- Tlast ([1]; Table 15, I.V. 1 mg/kg): 72 h
- AUC0_24 [1, 8]: 255.418 µg·h/mL and 285.442 µg·h/mL
- AUC last [1, 8]: 355.565 µg·h/mL and 403.09 µg·h/mL
- AUCINF_pred [1, 8]: 359.258 µg·h/mL and 407.964 µg·h/mL
- AUC_% Extrap_pred [1, 8]: 0.75% and 1.03% and 1.19%
- AUMC_% Extrap_pred [1, 8]: 3.41% and 4.82% and 5.56%
- C0 [1, 8]: 21060 ng/mL and 24603 ng/mL
- Cmax [1, 8]: 20910 ng/mL and 24203 ng/mL
- MRTINF_pred [1, 8]: 18.43 h and 18.65 h
- MRTlast [1, 8]: 17.72 h and 17.83 h
- Vss_pred [1, 8]: 0.054 L/kg and 0.046 L/kg
- Vz_pred [1, 8]: 0.04 L/kg and 0.036 L/kg
- t1/2 [1, 8]: 10 h and 10.31 h
- MRT inf [1, 9]: 18.7 h
- MRT last [1, 9]: 18.2 h
- MRT inf ([1]; sc, 1 mg/kg, CD-1 mouse, S.C.): 29 h
- MRT last ([1]; sc, 1 mg/kg, CD-1 mouse, S.C.): 27.6 h
- EC50 [2]: 0.11 nM
- EC50 ([3]; In Vitro Potency GLPIR EC50, 10% FBS, 10% FBS): 0.56 ± 0.15 nM
- EC50 ([3]; No Serum, read-out: In Vitro Potency GLPIR EC50, No Serum): 0.14 ± 0.06 nM
- t1/2 in dogs (in words) [4]: long t1/2
- AUC(0-t) ([4]; iv): 25600 ng·h/mL
- T last ([4]; iv): 240 h
- Vd ([4]; iv): 0.11 L/kg
- clearance ([4]; iv): 1.19 mL/h/kg
- half-life ([4]; iv): 3 days
- AUC(0-t) ([4]; sc): 17600 ng·h/mL
- Cmax ([4]; sc): 150 ng/mL
- T last ([4]; sc): 240 h
- Tmax ([4]; sc): 24 h
- half-life ([4]; sc): 2.61 days
- bioavailability ([4]; sc, Bioavailability): 68.7%
- EC50 [5]: 1.34 nM
